According to patent US20260137799A1, “ANTI-MUC1* ANTIBODY DRUG COMPLEXES AND USES THEREOF” (Minerva Biotechnologies Corporation, priority 2023, published 2026):

Tests used:
[1] = test system: breast cancer, pancreatic cancer, and lung cancer cell lines; test: Cytotoxicity of ADCs with additional linkers and toxins (FIGS. 30-31); format: cell-based; conditions: breast cancer, pancreatic cancer, and lung cancer cells
Protocol: FIG. 30 is a table showing cytotoxicity of the indicated MUC1* ADCs against indicated cancer cells. IC50 values were determined from xCELLigence data. FIG. 30 discloses “GGFG” as SEQ ID NO: 160, “GGGG” as SEQ ID NO: 161, “GGVA” as SEQ ID NO: 162, “GGVG” as SEQ ID NO: 163.
FIG. 31 is a table showing cytotoxicity of the indicated MUC1* ADCs against indicated cancer cells. IC50 values were determined from PrestoBlue data.
An anti-MUC1* antibody was conjugated to several toxins via a number of different linkers (compounds VIII-XXII).

[2] = test system: T47D-MUC1*; test: xCELLigence impedance cytotoxicity, T47D-MUC1*; format: cell-based, human; conditions: Example 9 (FIGS. 35-36); read-out: IC50, T47D cells engineered to express more MUC1*45
Protocol: (§1) An xCELLigence RTCA MP Instrument (Agilent) was used to assess real-time killing of target cancer cells). In the xCELLigence system, target cancer cells, which are adherent, are plated onto electrode array 96-well plates. Adherent cells insulate the electrode and increase the impedance. The number of adherent cancer cells is directly proportional to impedance. […] Therefore, increasing impedance reflects the growth of the cancer cells and decreasing impedance reflects the killing of the cancer cells.
(§2) Target Cancer cells (Table 9) were seeded onto a multi-electrode well plate at a density of 5000 cells/well (100 μL of a 50,000 cells/mL stock) and incubated for 24 hr in a 37° C./5% CO2 incubator. ADCs were prepared as a 2× solution in corresponding growth media and 100 μL of each concentration was added to target cells. As a positive control (100% cell killing) cells were treated with either 1% triton or 1 μM Taxol instead of ADC. After 40-120 hours incubation in a 37° C./5% CO2 incubator cell killing was assessed. In this assay, impedance is measured in real-time. When the adherent cancer cells are killed and come off the electrode surface, impedance (insulation) decreases.

[3] = test system: low MUC1* expressing, mCherry H1975 lung cancer cells; test: Bystander killing of low antigen expressing cancer cells; format: cell-based, human; conditions: 56 nM ADC; population contained 30% high MUC1* expressing H1975-MUC1*-GFP cells
[4] = test system: NCI-H1975; test: xCELLigence impedance cytotoxicity, NCI-H1975; format: cell-based, human; conditions: Example 9 (FIGS. 35-36); read-out: IC50 for killing of H1975-wt cells
Protocol: as §1, §2

[5] = target: MUC1*45 (UniProt P15941 1110-1255); test: cell-based or functional assay
[6] = test system: T47D; test: xCELLigence impedance cytotoxicity, T47D; format: cell-based, human; conditions: Example 9 (FIGS. 35-36); average over batches for DXd ADCs; read-out: IC50 for killing of breast cancer T47D-wt cells
Procedure, shortened: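 Adherent target cells plated at 5000/well on electrode plates were grown 24 h, then exposed to serially diluted ADCs in growth medium at 37° C/5% CO2. Killing was followed as real-time impedance loss over 40-120 h, normalized to 1% triton or 1 μM Taxol as 100% kill.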

[7] = test system: H2110-wt lung cancer cell line; test: xCELLigence impedance cytotoxicity, H2110; format: cell-based, human; conditions: Example 9 (FIGS. 35-36); read-out: IC50, lung cancer H2110-wt cells
Protocol: as §1, §2
(§3) To directly compare the C2 and 3C2B1 anti-MUC1* antibodies as ADC targeting domains, a panel of MUC1* positive cancer cell lines representing different cancer types were treated with C2-deruxtecan versus 3C2B1-deruxtecan (FIG. 35) or C2-MC-VA-PAB-exatecan versus 3C2B1-MC-VA-PAB-exatecan (FIG. 36). In some cases, the cancer cells were engineered to express high levels of MUC1*45.

[8] = test system: MUC1* negative HEK-293-TN cells; test: Bystander killing of non-target cells; format: cell-based
Protocol: The cell population was doped with H1975-MUC1*45-GFP cells as indicated. FIGS. 31A1-31A20 show the effect of C2-MC-GGFG-AM-DXd (SEQ ID NO: 160) on the non-target cells. […] FIGS. 31C1-31C20 show the effect of C2-MC-VA-PAB-exatecan on the non-target cells.
FIGS. 33A-33H show graphs of the integrated pixel density of non-target cancer cells as a function of doping cell population with cells expressing high amounts of MUC1*45. FIGS. 33A-33D show the effect when the cells were treated with C2-MC-GGFG-AM-DXd (SEQ ID NO: 160). FIGS. 33E-33H show the effect when the cells were treated with C2-MC-VA-PAB-exatecan.
In another experiment, we investigated the killing of off-target cells (MUC1* negative HEK-293-TN cells) as well as low antigen expressing target cells (H1975 lung cancer) due to a “bystander” effect (FIGS. 32A1-32D20, FIGS. 33A-33H and FIGS. 34A-34H). To assess the killing of non-target cells adjacent to cells with high MUC1* expression, we doped non-target cells expressing an mCherry marker with varying percentages of target cells that express GFP. 56 nM C2-MC-VA-PAB-exatecan killed nearly all the neighboring non-target cells when the cell population was doped with 30% of the high antigen expressing target cells (FIG. 32C17). […]

[9] = test system: CFPAC1-wt pancreatic cancer cell line; test: xCELLigence impedance cytotoxicity, CFPAC1; format: cell-based, human; conditions: Example 9 (FIGS. 35-36); read-out: IC50, CFPAC1-wt pancreatic cancer cells
Protocol: as §1, §2, §3

B1: C2-MC-VA-PAB-exatecan (antibody, mouse IgG1, kappa)
VH: EVQLEESGGGLVKPGGSLKLSCAASGFTFSGYAMSWVRQTPEKRLEWVATISSGGTYIYYPDSVKGRFTISRDNAKNTLYLQMSSLRSEDTAMYYCARLGGDNYYEYFDVWGAGTTVTVSSAKTTPPSVYAKTTPPSVYPLAPGSAAQTNSMVTLGCLVKGYFPEPVTVTWNSGSLSSGVHTFPAVLQSDLYTLSSSVTVPSSTWPSETVTCNVAHPASSTKVDKKIVPRDCGCKPCICTVPEVSSVFIFPPKPKDVLTITLTPKVTCVVVDISKDDPEVQFSWFVDDVEVHTAQTQPREEQFNSTFRSVSELPIMHQDWLNGKEFKCRVNSAAFPAPIEKTISKTKGRPKAPQVYTIPPPKEQMAKDKVSLTCMITDFFPEDITVEWQWNGQPAENYKNTQPIMDTDGSYFVYSKLNVQKSNWEAGNTFTCSVLHEGLHNHHTEKSLSHSPGK
VL: DIVITQSTASLGVSLGQRATISCRASKSVSTSGYSYMHWYQQRPGQPPKLLIYLASNLESGVPARFSGSGSGTDFTLNIHPVEEEDAATYYCQHSRELPFTFGGGTKLEIKRADAAPTVSADAAPTVSIFPPSSEQLTSGGASVVCFLNNFYPKDINVKWKIDGSERQNGVLNSWTDQDSKDSTYSMSSTLTLTKDEYERHNSYTCEATHKTSTSPIVKSFNRNEC
modifications: MC-VA-PAB-exatecan on reduced cysteine thiols of the antibody, sites not stated; MC-VA-PAB-exatecan on reduced cysteine thiols of the antibody, sites not stated; DAR 5.1
Question: For B1, which “activity compared to deruxtecan ADC” value [1] is on record?
Answer: enhanced activity

Question: What about the IC50 [2] of the same molecule?
Answer: 4 nM

Question: And the “low MUC1* expressing cancer cells killed” value [3]?
Answer: about 75%

Question: And the IC50 [4]?
Answer: 117 nM

Question: And the “IC50, killing of H1975 cells engineered to express MUC1*45 (xCELLigence)” value [5]?
Answer: 9 nM

Question: What about the IC50 [6] of the same molecule?
Answer: 44 nM

Question: And the IC50 [7]?
Answer: 60 nM

Question: What about the “killing of neighboring non-target cells” value ([8]; 56 nM ADC, population doped with 30% H1975-MUC1*45-GFP target cells, 120 hours) of the same molecule?
Answer: nearly all

Question: What about the non-specific cytotoxicity ([8]; pure populations of non-target HEK-293-TN cells) of the same molecule?
Answer: limited amount of non-specific cytotoxicity

Question: And the IC50 [9]?
Answer: 51 nM
